Experiment [1] has as its target porcine brain tubulin dimers (porcine, UniProt P02550 1-451; Q767L7 1-444). The experiment can be described thus: BLI. Background: Biolayer interferometry detects binding as a change in optical thickness at a sensor tip.
In experiment [2] the target is microtubules polymerised from porcine brain tubulin (porcine), P02550. The experiment can be described thus: co-sedimentation.
Sequence of microtubules polymerised from porcine brain tubulin (porcine), P02550 (P02550 whole entry, chain 1 of 2): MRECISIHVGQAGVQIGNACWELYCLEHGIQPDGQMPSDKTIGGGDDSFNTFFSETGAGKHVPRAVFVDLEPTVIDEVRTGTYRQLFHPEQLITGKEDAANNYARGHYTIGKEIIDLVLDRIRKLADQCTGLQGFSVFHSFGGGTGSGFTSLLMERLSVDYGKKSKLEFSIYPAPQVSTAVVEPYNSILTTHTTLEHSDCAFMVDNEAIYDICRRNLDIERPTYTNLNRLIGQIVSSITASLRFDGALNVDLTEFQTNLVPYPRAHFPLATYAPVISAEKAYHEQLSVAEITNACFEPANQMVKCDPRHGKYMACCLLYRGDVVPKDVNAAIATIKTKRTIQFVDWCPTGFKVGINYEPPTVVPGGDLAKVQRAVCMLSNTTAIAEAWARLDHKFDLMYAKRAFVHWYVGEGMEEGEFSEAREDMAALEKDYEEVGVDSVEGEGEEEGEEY
Sequence of microtubules polymerised from porcine brain tubulin (porcine), P02550 (P02554 whole entry, chain 2 of 2, further chain): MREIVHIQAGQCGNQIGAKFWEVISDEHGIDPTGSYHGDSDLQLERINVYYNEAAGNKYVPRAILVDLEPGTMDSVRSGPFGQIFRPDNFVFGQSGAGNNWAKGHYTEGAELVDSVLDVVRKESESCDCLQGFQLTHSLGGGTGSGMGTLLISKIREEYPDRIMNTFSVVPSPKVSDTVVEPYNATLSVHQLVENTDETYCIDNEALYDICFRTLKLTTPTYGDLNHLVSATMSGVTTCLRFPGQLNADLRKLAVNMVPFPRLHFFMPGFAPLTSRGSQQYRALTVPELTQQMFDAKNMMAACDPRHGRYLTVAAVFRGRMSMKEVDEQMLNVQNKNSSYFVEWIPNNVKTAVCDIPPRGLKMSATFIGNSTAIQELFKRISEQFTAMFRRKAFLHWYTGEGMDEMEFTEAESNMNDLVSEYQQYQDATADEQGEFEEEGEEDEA

B1: 6XHis-688-924 (Abl2-688-924, site I) (domain or fragment, murine, UniProt Q4JIM5 688-924, looked up)
chain: GNFSPVASLQNADGFSVAPSQQEPNLVPAKCYGGSFAQRNLCADDDSGGGGGSGTAGGGWSGITGFFTPRLIKKTLGLRAGKPTASDDTSKPFPRSNSTSSMSSGLPEQDRMAMTLPRNCQRSKLQLERTVSTSSQPEENVDRANDMLPKKSEEGAAPARERPKAKLLPRGATALPLRAPDPAITESDSPGVGVAGVAAAPKGKERNGGTRLGVAGVPEDGEQLGWSSPAKAVAVLP
Broadly, the Kd is a measure of binding affinity in units of concentration. As to B1, the Kd in experiment [1] was 118 ± 39 nM.

B2: 6XHis-1024-1090 (Abl2-1024-1090, site II) (domain or fragment, murine, UniProt Q4JIM5 1024-1090, looked up)
chain: KAAPGPVPSSGKPGRPVMPPPQVPLPTSSISPAKMANGTAGTKVALRKTKQAAEKISADKISKEALL
Take B2: binding in experiment [1] was put at a Kd of 252 ± 123 nM.

B3: 6XHis-557-C (Abl2-557-1182, C-terminal half) (domain or fragment, murine, UniProt Q4JIM5 557-1182, looked up)
chain: GRTASSSSVVPYLPRLPLLPSKTRTLRKQGENKENLDGGLDAAESLASSSAPAGFIRSTQASSGSPALPRKQRDKSPSSLLEDAKETCFTRDRKGGFFSSFMKKRNAPTPPKRSSSFREMENQPHKKYELTGNFSPVASLQNADGFSVAPSQQEPNLVPAKCYGGSFAQRNLCADDDSGGGGGSGTAGGGWSGITGFFTPRLIKKTLGLRAGKPTASDDTSKPFPRSNSTSSMSSGLPEQDRMAMTLPRNCQRSKLQLERTVSTSSQPEENVDRANDMLPKKSEEGAAPARERPKAKLLPRGATALPLRAPDPAITESDSPGVGVAGVAAAPKGKERNGGTRLGVAGVPEDGEQLGWSSPAKAVAVLPTTHNHKVPVLISPTLKHTPADVQLIGTDSQGNKFKLLSEHQVTSSGDKDRPRRVKPKCAPPPPPVMRLLQHPSTCSDPEEEPTAPPAGQHTPETQEGGKKAAPGPVPSSGKPGRPVMPPPQVPLPTSSISPAKMANGTAGTKVALRKTKQAAEKISADKISKEALLECADLLSSAITEPVPNSQLVDTGHQLLDYCSGYVDSIPQTRNKFAFREAVSKLELSLQELQVSSTAAGVPGTNPVLNNLLSCVQEISDVVQR
B3 yielded a Kd in experiment [1] of 17 ± 8 nM.

B4: Abl2Δ688-790-eGFP, Q4JIM5 74-1182 (natural protein)
chain: EVLHRPFGCDAESQALNEAIRWSSKENLLGATESDPNLFVALYDFVASGDNTLSITKGEKLRVLGYNQNGEWSEVRSKNGQGWVPSNYITPVNSLEKHSWYHGPVSRSAAEYLLSSLINGSFLVRESESSPGQLSISLRYEGRVYHYRINTTTDSKVYVTAESRFSTLAELVHHHSTVADGLVTTLHYPAPKCNKPTVYGVSPIHDKWEMERTDITMKHKLGGGQYGEVYVGVWKKYSLTVAVKTFKEDTMEVEEFLKEAAVMKEIKHPNLVQLLGVCTLEPPFYIVTEYMPYGNLLDYLRECSREEVTAVVLLYMATQISSAMEYLEKKNFIHRDLAARNCLVGENHVVKVADFGLSRLMTGDTYTAHAGAKFPIKWTAPESLAYNTFSIKSDVWAFGVLLWEIATYGMSPYPGIDLSQVYDLLEKGYRMEQPEGCPPKVYELMRACWKWSPADRPSFAETHQAFETMFHDSSISEEVAEELGRTASSSSVVPYLPRLPLLPSKTRTLRKQGENKENLDGGLDAAESLASSSAPAGFIRSTQASSGSPALPRKQRDKSPSSLLEDAKETCFTRDRKGGFFSSFMKKRNAPTPPKRSSSFREMENQPHKKYELTSGLPEQDRMAMTLPRNCQRSKLQLERTVSTSSQPEENVDRANDMLPKKSEEGAAPARERPKAKLLPRGATALPLRAPDPAITESDSPGVGVAGVAAAPKGKERNGGTRLGVAGVPEDGEQLGWSSPAKAVAVLPTTHNHKVPVLISPTLKHTPADVQLIGTDSQGNKFKLLSEHQVTSSGDKDRPRRVKPKCAPPPPPVMRLLQHPSTCSDPEEEPTAPPAGQHTPETQEGGKKAAPGPVPSSGKPGRPVMPPPQVPLPTSSISPAKMANGTAGTKVALRKTKQAAEKISADKISKEALLECADLLSSAITEPVPNSQLVDTGHQLLDYCSGYVDSIPQTRNKFAFREAVSKLELSLQELQVSSTAAGVPGTNPVLNNLLSCVQEISDVVQR
As to B4, the Kd in experiment [2] amounted to 400 nM.

B5: Abl2-eGFP, Q4JIM5 74-1182 (natural protein)
chain: EVLHRPFGCDAESQALNEAIRWSSKENLLGATESDPNLFVALYDFVASGDNTLSITKGEKLRVLGYNQNGEWSEVRSKNGQGWVPSNYITPVNSLEKHSWYHGPVSRSAAEYLLSSLINGSFLVRESESSPGQLSISLRYEGRVYHYRINTTTDSKVYVTAESRFSTLAELVHHHSTVADGLVTTLHYPAPKCNKPTVYGVSPIHDKWEMERTDITMKHKLGGGQYGEVYVGVWKKYSLTVAVKTFKEDTMEVEEFLKEAAVMKEIKHPNLVQLLGVCTLEPPFYIVTEYMPYGNLLDYLRECSREEVTAVVLLYMATQISSAMEYLEKKNFIHRDLAARNCLVGENHVVKVADFGLSRLMTGDTYTAHAGAKFPIKWTAPESLAYNTFSIKSDVWAFGVLLWEIATYGMSPYPGIDLSQVYDLLEKGYRMEQPEGCPPKVYELMRACWKWSPADRPSFAETHQAFETMFHDSSISEEVAEELGRTASSSSVVPYLPRLPLLPSKTRTLRKQGENKENLDGGLDAAESLASSSAPAGFIRSTQASSGSPALPRKQRDKSPSSLLEDAKETCFTRDRKGGFFSSFMKKRNAPTPPKRSSSFREMENQPHKKYELTGNFSPVASLQNADGFSVAPSQQEPNLVPAKCYGGSFAQRNLCADDDSGGGGGSGTAGGGWSGITGFFTPRLIKKTLGLRAGKPTASDDTSKPFPRSNSTSSMSSGLPEQDRMAMTLPRNCQRSKLQLERTVSTSSQPEENVDRANDMLPKKSEEGAAPARERPKAKLLPRGATALPLRAPDPAITESDSPGVGVAGVAAAPKGKERNGGTRLGVAGVPEDGEQLGWSSPAKAVAVLPTTHNHKVPVLISPTLKHTPADVQLIGTDSQGNKFKLLSEHQVTSSGDKDRPRRVKPKCAPPPPPVMRLLQHPSTCSDPEEEPTAPPAGQHTPETQEGGKKAAPGPVPSSGKPGRPVMPPPQVPLPTSSISPAKMANGTAGTKVALRKTKQAAEKISADKISKEALLECADLLSSAITEPVPNSQLVDTGHQLLDYCSGYVDSIPQTRNKFAFREAVSKLELSLQELQVSSTAAGVPGTNPVLNNLLSCVQEISDVVQR
Molecule B5 gave a dissociation constant (Kd) in experiment [2] of 320 nM.

The record behind these values is paper PMC10877310 (Current biology : CB, 2023).
